Key:
Experiment in all cases: cell-based or functional assay
[1] = target: MTH1 target polypeptide with a 10 amino acid spacer and a carboxy terminal S-tag acceptor peptide
[2] = target: MTH1 target polypeptide with a 3 amino acid spacer and a carboxy terminal S-tag acceptor peptide
[3] = target: MTH1-S-tag fusion protein with no linker between MTH1 and the S-tag peptide

Measured: S protein concentration at which the fluorescent signal starts to saturate

Chain of His tagged RNase donor protein (S protein) (P61823 other isoform, or with tags, fused parts or gaps limits assumed): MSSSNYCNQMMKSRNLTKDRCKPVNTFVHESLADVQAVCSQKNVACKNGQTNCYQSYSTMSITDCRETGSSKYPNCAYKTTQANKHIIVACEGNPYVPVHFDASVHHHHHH

His tagged RNase donor protein (S protein) (from UniProt P61823 47-150)
1 to 2 ng/µL: [1] | [2] | [3]

— US20230204594A1, “SYSTEMS AND METHODS FOR REAL-TIME CELLULAR DRUG-TARGET ENGAGEMENT” (NERD BIO LLC, priority 2021, published 2023)
